Molecular target: T1, human NaPi2a (human, UniProt Q06495 1-639)
T1 construct: whole, on cells; also called Hu NaPi2a; SLC34A1
T1 sequence (looked up): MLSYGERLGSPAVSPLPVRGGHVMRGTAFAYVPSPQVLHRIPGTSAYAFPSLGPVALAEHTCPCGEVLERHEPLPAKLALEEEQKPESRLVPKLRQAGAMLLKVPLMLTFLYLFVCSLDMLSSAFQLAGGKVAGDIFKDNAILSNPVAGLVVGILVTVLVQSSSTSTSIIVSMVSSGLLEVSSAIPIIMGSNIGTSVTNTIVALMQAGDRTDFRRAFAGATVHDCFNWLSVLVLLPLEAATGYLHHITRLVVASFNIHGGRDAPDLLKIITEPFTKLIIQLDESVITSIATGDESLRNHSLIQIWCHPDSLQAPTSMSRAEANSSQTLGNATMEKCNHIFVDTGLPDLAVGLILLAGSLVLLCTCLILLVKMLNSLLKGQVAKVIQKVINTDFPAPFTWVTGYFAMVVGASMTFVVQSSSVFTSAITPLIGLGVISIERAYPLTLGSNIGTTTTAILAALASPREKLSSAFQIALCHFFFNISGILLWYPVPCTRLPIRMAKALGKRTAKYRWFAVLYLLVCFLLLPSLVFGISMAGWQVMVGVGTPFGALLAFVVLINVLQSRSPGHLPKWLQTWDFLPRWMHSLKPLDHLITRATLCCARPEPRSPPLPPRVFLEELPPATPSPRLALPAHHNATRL
Assay: flow cytometry on HEK293-6e cells transfected with human NaPi2a, 24 h at 4 C, anti-human IgG Fc AF647

Row | Binder | binding result
1 | v22277 (palivizumab, anti-RSV negative control, heterodimeric Fc) (antibody, human IgG1, kappa, also called neg control) heavy 1: GQVTLRESGPALVKPTQTLTLTCTFSGFSLSTSGMSVGWIRQPPGKALEWLADIWWDDKKDYNPSLKSRLTISKDTSKNQVVLKVTNMDPADTATYYCARSMITNWYFDVWGAGTTVTVSSASTKGPSVFPLAPSSKSTSGGTAALGCLVKDYFPEPVTVSWNSGALTSGVHTFPAVLQSSGLYSLSSVVTVPSSSLGTQTYICNVNHKPSNTKVDKKVEPKSCDKTHTCPPCPAPELLGGPSVFLFPPKPKDTLMISRTPEVTCVVVDVSHEDPEVKFNWYVDGVEVHNAKTKPREEQYNSTYRVVSVLTVLHQDWLNGKEYKCKVSNKALPAPIEKTISKAKGQPREPQVYVYPPSRDELTKNQVSLTCLVKGFYPSDIAVEWESNGQPENNYKTTPPVLDSDGSFALVSKLTVDKSRWQQGNVFSCSVMHEALHNHYTQKSLSLSPG heavy 2: not shown light: GDIQMTQSPSTLSASVGDRVTITCKSQLSVGYMHWYQQKPGKAPKLLIYDTSKLASGVPSRFSGSGSGTEFTLTISSLQPDDFATYYCFQGSGYPFTFGGGTKLEIKRTVAAPSVFIFPPSDEQLKSGTASVVCLLNNFYPREAKVQWKVDNALQSGNSQESVTEQDSKDSTYSLSSTLTLSKADYEKHKVYACEVTHQGLSSPVTKSFNRGEC | no binding (tested: 200 nM)
2 | v18993 (lifastuzumab), reference anti-NaPi2b antibody (antibody, human IgG1, kappa) heavy 1: GEVQLVESGGGLVQPGGSLRLSCAASGFSFSDFAMSWVRQAPGKGLEWVATIGRVAFHTYYPDSMKGRFTISRDNSKNTLYLQMNSLRAEDTAVYYCARHRGFDVGHFDFWGQGTLVTVSSASTKGPSVFPLAPSSKSTSGGTAALGCLVKDYFPEPVTVSWNSGALTSGVHTFPAVLQSSGLYSLSSVVTVPSSSLGTQTYICNVNHKPSNTKVDKKVEPKSCDKTHTCPPCPAPELLGGPSVFLFPPKPKDTLMISRTPEVTCVVVDVSHEDPEVKFNWYVDGVEVHNAKTKPREEQYNSTYRVVSVLTVLHQDWLNGKEYKCKVSNKALPAPIEKTISKAKGQPREPQVYVYPPSRDELTKNQVSLTCLVKGFYPSDIAVEWESNGQPENNYKTTPPVLDSDGSFALVSKLTVDKSRWQQGNVFSCSVMHEALHNHYTQKSLSLSPG heavy 2: not shown light: GDIQMTQSPSSLSASVGDRVTITCRSSETLVHSSGNTYLEWYQQKPGKAPKLLIYRVSNRFSGVPSRFSGSGSGTDFTLTISSLQPEDFATYYCFQGSFNPLTFGQGTKVEIKRTVAAPSVFIFPPSDEQLKSGTASVVCLLNNFYPREAKVQWKVDNALQSGNSQESVTEQDSKDSTYSLSSTLTLSKADYEKHKVYACEVTHQGLSSPVTKSFNRGEC | no binding (tested: 200 nM)
3 | v38591 (humanized anti-NaPi2b antibody, wild-type Fc) (antibody, human IgG1, kappa, also called v38591 Wild-type; H1L2) heavy: not shown light: DVQMTQSPSSLSASVGDRVTITCRASQDVYSYLNWYQQKPGKAVKLLIYYTSRLQSGVPSRFSGSGSGTDYTLTISSLQPEDFATYYCQQYNIFPWTFGQGTKLEIKRTVAAPSVFIFPPSDEQLKSGTASVVCLLNNFYPREAKVQWKVDNALQSGNSQESVTEQDSKDSTYSLSSTLTLSKADYEKHKVYACEVTHQGLSSPVTKSFNRGEC | no binding (tested: 200 nM)
4 | v18992 (MX35), reference anti-NaPi2b antibody (antibody, human IgG1, kappa) heavy 1: GQVQLVQSGAEVVKPGASVKMSCKASGYTFTGYNIHWVKQAPGQGLEWIGAIYPGNGDTSYKQKFRGRATLTADTSTSTVYMELSSLRSEDSAVYYCARGETARATFAYWGQGTLVTVSSASTKGPSVFPLAPSSKSTSGGTAALGCLVKDYFPEPVTVSWNSGALTSGVHTFPAVLQSSGLYSLSSVVTVPSSSLGTQTYICNVNHKPSNTKVDKKVEPKSCDKTHTCPPCPAPELLGGPSVFLFPPKPKDTLMISRTPEVTCVVVDVSHEDPEVKFNWYVDGVEVHNAKTKPREEQYNSTYRVVSVLTVLHQDWLNGKEYKCKVSNKALPAPIEKTISKAKGQPREPQVYVYPPSRDELTKNQVSLTCLVKGFYPSDIAVEWESNGQPENNYKTTPPVLDSDGSFALVSKLTVDKSRWQQGNVFSCSVMHEALHNHYTQKSLSLSPG heavy 2: not shown light: GDIQMTQSPSSLSASVGDRVTITCSASQDIGNFLNWYQQKPGKTVKVLIYYTSSLYSGVPSRFSGSGSGTDYTLTISSLQPEDFATYYCQQYSKLPLTFGQGTKLELKRTVAAPSVFIFPPSDEQLKSGTASVVCLLNNFYPREAKVQWKVDNALQSGNSQESVTEQDSKDSTYSLSSTLTLSKADYEKHKVYACEVTHQGLSSPVTKSFNRGEC | no binding (tested: 200 nM)

Reference: patent US20260232827A1 (Zymeworks, published 2026)
